The supplement of paper PMC10126150
± gives the standard deviation of the averaged measurements.

Tested on: ATP
Assay: switch fluorescence ratio, 500 uM ATP over buffer (Cy3 cluster intensity, sum of 5 cycles each) (fold (ratio)); higher = stronger signal-on switching upon ATP binding; sequences stand for … in TCGTCGGCAGCGTCAGATGTGTATAAGAGACAGTTTTTTTTTTTTTTTTTTTTTTTTT…TC
Conditions: aptamer strand: ATP DNA aptamer (quencher-CACCTGGGGGAGTATTGCGGAGGAAGG + anchor), 100 nM annealed; ATP concentration: 500 uM
Summary of the method: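 Five buffer/ATP imaging cycles were run on Cy3-labelled switching-strand clusters on a modified Illumina MiSeq flow-cell, with NaOH stripping and re-annealing between cycles. In each cycle, clusters annealed to 100 nM quencher-labelled ATP aptamer were imaged in selection buffer, then after 15 min with 500 uM ATP at 22 °C. Per cluster, the fluorescence ratio is summed target-cycle over summed buffer-cycle Cy3 intensity, averaged per switch-domain sequence. Only clusters within 100-1000 RFU were kept.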
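Further: ATP exposure 15 min at 22 °C before imaging.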

## AGGGCCGTAT
  switch fluorescence ratio: 1.04 ± 0.056

## AGGGCCTTAG
  switch fluorescence ratio: 0.9733 ± 0.009

## AGGGCGACAG
  switch fluorescence ratio: 1.01 ± 0.012

## AGGGCGGGTG
  switch fluorescence ratio: 1.047 ± 0.0095

## AGGGCGGTGT
  switch fluorescence ratio: 0.991 ± 0.027

## AGGGCGTCTA
  switch fluorescence ratio: 1.015 ± 0.003

## AGGGCGTCTC
  switch fluorescence ratio: 0.981 ± 0.043

## AGGGCGTTAG
  switch fluorescence ratio: 1.01 ± 0.044

## AGGGCTATTT
  switch fluorescence ratio: 0.973 ± 0.01

## AGGGCTGATA
  switch fluorescence ratio: 1.009 ± 0.0013

## AGGGCTGCCC
  switch fluorescence ratio: 1 ± 0.021

## AGGGCTGCGT
  switch fluorescence ratio: 0.984 ± 0.017

## AGGGCTGGGG
  switch fluorescence ratio: 0.973 ± 0.019

## AGGGCTTAGA
  switch fluorescence ratio: 0.9905 ± 0.0033

## AGGGGAAAAC
  switch fluorescence ratio: 1.03 ± 0.044

## AGGGGAAGGA
  switch fluorescence ratio: 1 ± 0.049

## AGGGGAATGG
  switch fluorescence ratio: 0.997 ± 0.015

## AGGGGACGAC
  switch fluorescence ratio: 1.02 ± 0.027

## AGGGGACGCC
  switch fluorescence ratio: 0.9928 ± 0.0049

## AGGGGACTAT
  switch fluorescence ratio: 1 ± 0.013

## AGGGGAGGAC
  switch fluorescence ratio: 1.03 ± 0.02

## AGGGGAGGCA
  switch fluorescence ratio: 1.02 ± 0.089

## AGGGGAGTGG
  switch fluorescence ratio: 0.992 ± 0.038

## AGGGGAGTTA
  switch fluorescence ratio: 1.02 ± 0.051

## AGGGGATAGG
  switch fluorescence ratio: 0.98 ± 0.046

## AGGGGATAGT
  switch fluorescence ratio: 0.9659 ± 0.0091

## AGGGGATGAA
  switch fluorescence ratio: 1.04 ± 0.027

## AGGGGATGTG
  switch fluorescence ratio: 0.97 ± 0.048

## AGGGGATTC
  switch fluorescence ratio: 1.002 ± 0.0075

## AGGGGCAAAC
  switch fluorescence ratio: 1.45 ± 0.078

## AGGGGCCCGC
  switch fluorescence ratio: 0.98 ± 0.018

## AGGGGCTGGG
  switch fluorescence ratio: 0.99 ± 0.017

## AGGGGCTGGT
  switch fluorescence ratio: 0.997 ± 0.026

## AGGGGCTTCG
  switch fluorescence ratio: 1.04 ± 0.015

## AGGGGCTTCT
  switch fluorescence ratio: 1.06 ± 0.028

## AGGGGCTTTA
  switch fluorescence ratio: 1.14 ± 0.2

## AGGGGGACGT
  switch fluorescence ratio: 0.998 ± 0.024

## AGGGGGAGAT
  switch fluorescence ratio: 1.02 ± 0.042

## AGGGGGAGGT
  switch fluorescence ratio: 0.975 ± 0.017

## AGGGGGATTG
  switch fluorescence ratio: 0.987 ± 0.03

## AGGGGGCAAT
  switch fluorescence ratio: 1.11 ± 0.18

## AGGGGGCCAG
  switch fluorescence ratio: 1 ± 0.019

## AGGGGGCGGG
  switch fluorescence ratio: 1.03 ± 0.035

## AGGGGGCGGT
  switch fluorescence ratio: 0.959 ± 0.033

## AGGGGGGAAT
  switch fluorescence ratio: 1.03 ± 0.048

## AGGGGGGACA
  switch fluorescence ratio: 1.02 ± 0.084

## AGGGGGGAGC
  switch fluorescence ratio: 1.01 ± 0.029

## AGGGGGGCCG
  switch fluorescence ratio: 1.08 ± 0.019

## AGGGGGGCTT
  switch fluorescence ratio: 1.01 ± 0.054

## AGGGGGGGAT
  switch fluorescence ratio: 0.982 ± 0.029

## AGGGGGGGCG
  switch fluorescence ratio: 0.975 ± 0.05

## AGGGGGGGT
  switch fluorescence ratio: 1.05 ± 0.077

## AGGGGGTAGT
  switch fluorescence ratio: 0.983 ± 0.011

## AGGGGGTATG
  switch fluorescence ratio: 0.983 ± 0.014

## AGGGGGTATT
  switch fluorescence ratio: 1.01 ± 0.024

## AGGGGGTCAG
  switch fluorescence ratio: 0.986 ± 0.027

## AGGGGGTT
  switch fluorescence ratio: 1 ± 0.077

## AGGGGGTTGT
  switch fluorescence ratio: 0.995 ± 0.026

## AGGGGGTTTA
  switch fluorescence ratio: 0.999 ± 0.031

## AGGGGGTTTT
  switch fluorescence ratio: 1 ± 0.036

## AGGGGTACGT
  switch fluorescence ratio: 0.982 ± 0.011

## AGGGGTACTT
  switch fluorescence ratio: 1 ± 0.049

## AGGGGTAGTT
  switch fluorescence ratio: 1.01 ± 0.029

## AGGGGTATT
  switch fluorescence ratio: 1 ± 0.014

## AGGGGTATTA
  switch fluorescence ratio: 1.002 ± 0.01

## AGGGGTGATA
  switch fluorescence ratio: 1.023 ± 0.0047

## AGGGGTGCCA
  switch fluorescence ratio: 0.9529 ± 0.0048

## AGGGGTTACG
  switch fluorescence ratio: 0.981 ± 0.044

## AGGGGTTATG
  switch fluorescence ratio: 1 ± 0.021

## AGGGGTTGGT
  switch fluorescence ratio: 0.983 ± 0.027

## AGGGGTTTGC
  switch fluorescence ratio: 0.957 ± 0.021

## AGGGTAAAAG
  switch fluorescence ratio: 1.03 ± 0.024

## AGGGTAACGA
  switch fluorescence ratio: 0.999 ± 0.035

## AGGGTACTGT
  switch fluorescence ratio: 1.05 ± 0.092

## AGGGTAGTGC
  switch fluorescence ratio: 0.9869 ± 0.0091

## AGGGTATTAG
  switch fluorescence ratio: 0.995 ± 0.025

## AGGGTATTCG
  switch fluorescence ratio: 0.9981 ± 0.0049

## AGGGTCAACG
  switch fluorescence ratio: 1.018 ± 0.0099

## AGGGTCAATG
  switch fluorescence ratio: 0.983 ± 0.013

## AGGGTCAGTG
  switch fluorescence ratio: 1.02 ± 0.062

## AGGGTCGGAT
  switch fluorescence ratio: 0.972 ± 0.033

## AGGGTCTGTA
  switch fluorescence ratio: 0.939 ± 0.015

## AGGGTCTGTT
  switch fluorescence ratio: 0.978 ± 0.012

## AGGGTGGAAA
  switch fluorescence ratio: 1.02 ± 0.019

## AGGGTGGGGT
  switch fluorescence ratio: 0.977 ± 0.043

## AGGGTGTGAC
  switch fluorescence ratio: 1.01 ± 0.036

## AGGGTTAGGT
  switch fluorescence ratio: 1.003 ± 0.0028

## AGGGTTGACA
  switch fluorescence ratio: 0.981 ± 0.046

## AGGGTTGACT
  switch fluorescence ratio: 0.964 ± 0.012

## AGGGTTTCCA
  switch fluorescence ratio: 1.01 ± 0.06

## AGGGTTTGGA
  switch fluorescence ratio: 1 ± 0.02

## AGGGTTTTAT
  switch fluorescence ratio: 1.003 ± 0.0048

## AGGTAAAGTT
  switch fluorescence ratio: 0.972 ± 0.014

## AGGTAAGTAG
  switch fluorescence ratio: 1.01 ± 0.031

## AGGTACAGGG
  switch fluorescence ratio: 1.01 ± 0.041

## AGGTACGGGG
  switch fluorescence ratio: 0.971 ± 0.012

## AGGTAGAGTG
  switch fluorescence ratio: 0.948 ± 0.038

## AGGTAGGCCA
  switch fluorescence ratio: 0.951 ± 0.026

## AGGTAGGCCT
  switch fluorescence ratio: 0.991 ± 0.025

## AGGTAGGTAA
  switch fluorescence ratio: 1.03 ± 0.054
